Results taken from patent US20160272683A1 (Novo Nordisk, published 2016).
* marks the point of attachment. C18 diacid = O=C(O)CCCCCCCCCCCCCCCCC(=O)*

T1: human amylin receptor (human calcitonin receptor + human RAMP3) (human) (UniProt P30988)
T1 sequence (looked up) 1: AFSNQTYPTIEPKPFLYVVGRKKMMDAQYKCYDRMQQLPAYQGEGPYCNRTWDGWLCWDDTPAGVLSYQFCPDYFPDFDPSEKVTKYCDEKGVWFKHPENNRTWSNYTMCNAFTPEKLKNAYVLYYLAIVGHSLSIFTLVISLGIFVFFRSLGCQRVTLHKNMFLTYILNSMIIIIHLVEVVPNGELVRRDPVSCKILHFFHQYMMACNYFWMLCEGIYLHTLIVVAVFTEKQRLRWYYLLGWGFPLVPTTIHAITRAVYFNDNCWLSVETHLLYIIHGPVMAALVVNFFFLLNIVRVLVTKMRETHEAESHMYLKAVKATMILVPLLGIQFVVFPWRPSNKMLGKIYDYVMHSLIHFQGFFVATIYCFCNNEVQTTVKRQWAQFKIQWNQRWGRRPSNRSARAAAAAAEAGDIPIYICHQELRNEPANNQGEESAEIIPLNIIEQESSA
T1 sequence (looked up) 2: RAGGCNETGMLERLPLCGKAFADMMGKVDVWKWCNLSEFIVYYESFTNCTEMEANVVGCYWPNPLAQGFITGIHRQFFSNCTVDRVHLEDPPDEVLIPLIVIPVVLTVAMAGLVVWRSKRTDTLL

B1: [N-terminal(C18 diacid), 9V, 25P]mimylin (peptide)
peptide: {C18 diacid}-EASELSTAVLGRLSAELHELATLPPTETGPESP-NH2
SMILES: CC(C)C[C@H](NC(=O)[C@H](CCC(=O)O)NC(=O)[C@H](Cc1c[nH]cn1)NC(=O)[C@H](CC(C)C)NC(=O)[C@H](CCC(=O)O)NC(=O)[C@H](C)NC(=O)[C@H](CO)NC(=O)[C@H](CC(C)C)NC(=O)[C@H](CCCNC(=N)N)NC(=O)CNC(=O)[C@H](CC(C)C)NC(=O)[C@@H](NC(=O)[C@H](C)NC(=O)[C@@H](NC(=O)[C@H](CO)NC(=O)[C@H](CC(C)C)NC(=O)[C@H](CCC(=O)O)NC(=O)[C@H](CO)NC(=O)[C@H](C)NC(=O)[C@H](CCC(=O)O)NC(=O)CCCCCCCCCCCCCCCCC(=O)O)[C@@H](C)O)C(C)C)C(=O)N[C@@H](C)C(=O)N[C@H](C(=O)N[C@@H](CC(C)C)C(=O)N1CCC[C@H]1C(=O)N1CCC[C@H]1C(=O)N[C@H](C(=O)N[C@@H](CCC(=O)O)C(=O)N[C@H](C(=O)NCC(=O)N1CCC[C@H]1C(=O)N[C@@H](CCC(=O)O)C(=O)N[C@@H](CO)C(=O)N1CCC[C@H]1C(N)=O)[C@@H](C)O)[C@@H](C)O)[C@@H](C)O
B2: [N-terminal(C18 diacid), 9V, 10I]mimylin (peptide)
peptide: {C18 diacid}-EASELSTAVIGRLSAELHELATLPRTETGPESP-NH2
SMILES: CC[C@H](C)[C@H](NC(=O)[C@@H](NC(=O)[C@H](C)NC(=O)[C@@H](NC(=O)[C@H](CO)NC(=O)[C@H](CC(C)C)NC(=O)[C@H](CCC(=O)O)NC(=O)[C@H](CO)NC(=O)[C@H](C)NC(=O)[C@H](CCC(=O)O)NC(=O)CCCCCCCCCCCCCCCCC(=O)O)[C@@H](C)O)C(C)C)C(=O)NCC(=O)N[C@@H](CCCNC(=N)N)C(=O)N[C@@H](CC(C)C)C(=O)N[C@@H](CO)C(=O)N[C@@H](C)C(=O)N[C@@H](CCC(=O)O)C(=O)N[C@@H](CC(C)C)C(=O)N[C@@H](Cc1c[nH]cn1)C(=O)N[C@@H](CCC(=O)O)C(=O)N[C@@H](CC(C)C)C(=O)N[C@@H](C)C(=O)N[C@H](C(=O)N[C@@H](CC(C)C)C(=O)N1CCC[C@H]1C(=O)N[C@@H](CCCNC(=N)N)C(=O)N[C@H](C(=O)N[C@@H](CCC(=O)O)C(=O)N[C@H](C(=O)NCC(=O)N1CCC[C@H]1C(=O)N[C@@H](CCC(=O)O)C(=O)N[C@@H](CO)C(=O)N1CCC[C@H]1C(N)=O)[C@@H](C)O)[C@@H](C)O)[C@@H](C)O
B3: [N-terminal(C18 diacid), 2P, 9V]mimylin (peptide)
peptide: {C18 diacid}-EPSELSTAVLGRLSAELHELATLPRTETGPESP-NH2
SMILES: CC(C)C[C@H](NC(=O)[C@H](CCC(=O)O)NC(=O)[C@H](Cc1c[nH]cn1)NC(=O)[C@H](CC(C)C)NC(=O)[C@H](CCC(=O)O)NC(=O)[C@H](C)NC(=O)[C@H](CO)NC(=O)[C@H](CC(C)C)NC(=O)[C@H](CCCNC(=N)N)NC(=O)CNC(=O)[C@H](CC(C)C)NC(=O)[C@@H](NC(=O)[C@H](C)NC(=O)[C@@H](NC(=O)[C@H](CO)NC(=O)[C@H](CC(C)C)NC(=O)[C@H](CCC(=O)O)NC(=O)[C@H](CO)NC(=O)[C@@H]1CCCN1C(=O)[C@H](CCC(=O)O)NC(=O)CCCCCCCCCCCCCCCCC(=O)O)[C@@H](C)O)C(C)C)C(=O)N[C@@H](C)C(=O)N[C@H](C(=O)N[C@@H](CC(C)C)C(=O)N1CCC[C@H]1C(=O)N[C@@H](CCCNC(=N)N)C(=O)N[C@H](C(=O)N[C@@H](CCC(=O)O)C(=O)N[C@H](C(=O)NCC(=O)N1CCC[C@H]1C(=O)N[C@@H](CCC(=O)O)C(=O)N[C@@H](CO)C(=O)N1CCC[C@H]1C(N)=O)[C@@H](C)O)[C@@H](C)O)[C@@H](C)O
B4: [N-terminal(C18 diacid), 9L, 10A]mimylin (peptide)
peptide: {C18 diacid}-EASELSTALAGRLSAELHELATLPRTETGPESP-NH2
SMILES: CC(C)C[C@H](NC(=O)[C@H](C)NC(=O)[C@@H](NC(=O)[C@H](CO)NC(=O)[C@H](CC(C)C)NC(=O)[C@H](CCC(=O)O)NC(=O)[C@H](CO)NC(=O)[C@H](C)NC(=O)[C@H](CCC(=O)O)NC(=O)CCCCCCCCCCCCCCCCC(=O)O)[C@@H](C)O)C(=O)N[C@@H](C)C(=O)NCC(=O)N[C@@H](CCCNC(=N)N)C(=O)N[C@@H](CC(C)C)C(=O)N[C@@H](CO)C(=O)N[C@@H](C)C(=O)N[C@@H](CCC(=O)O)C(=O)N[C@@H](CC(C)C)C(=O)N[C@@H](Cc1c[nH]cn1)C(=O)N[C@@H](CCC(=O)O)C(=O)N[C@@H](CC(C)C)C(=O)N[C@@H](C)C(=O)N[C@H](C(=O)N[C@@H](CC(C)C)C(=O)N1CCC[C@H]1C(=O)N[C@@H](CCCNC(=N)N)C(=O)N[C@H](C(=O)N[C@@H](CCC(=O)O)C(=O)N[C@H](C(=O)NCC(=O)N1CCC[C@H]1C(=O)N[C@@H](CCC(=O)O)C(=O)N[C@@H](CO)C(=O)N1CCC[C@H]1C(N)=O)[C@@H](C)O)[C@@H](C)O)[C@@H](C)O
B5: [N-terminal(C18 diacid), 4P, 9V]mimylin (peptide)
peptide: {C18 diacid}-EASPLSTAVLGRLSAELHELATLPRTETGPESP-NH2
SMILES: CC(C)C[C@H](NC(=O)[C@H](CCC(=O)O)NC(=O)[C@H](Cc1c[nH]cn1)NC(=O)[C@H](CC(C)C)NC(=O)[C@H](CCC(=O)O)NC(=O)[C@H](C)NC(=O)[C@H](CO)NC(=O)[C@H](CC(C)C)NC(=O)[C@H](CCCNC(=N)N)NC(=O)CNC(=O)[C@H](CC(C)C)NC(=O)[C@@H](NC(=O)[C@H](C)NC(=O)[C@@H](NC(=O)[C@H](CO)NC(=O)[C@H](CC(C)C)NC(=O)[C@@H]1CCCN1C(=O)[C@H](CO)NC(=O)[C@H](C)NC(=O)[C@H](CCC(=O)O)NC(=O)CCCCCCCCCCCCCCCCC(=O)O)[C@@H](C)O)C(C)C)C(=O)N[C@@H](C)C(=O)N[C@H](C(=O)N[C@@H](CC(C)C)C(=O)N1CCC[C@H]1C(=O)N[C@@H](CCCNC(=N)N)C(=O)N[C@H](C(=O)N[C@@H](CCC(=O)O)C(=O)N[C@H](C(=O)NCC(=O)N1CCC[C@H]1C(=O)N[C@@H](CCC(=O)O)C(=O)N[C@@H](CO)C(=O)N1CCC[C@H]1C(N)=O)[C@@H](C)O)[C@@H](C)O)[C@@H](C)O
B6: [N-terminal(C18 diacid), 3P, 9V]mimylin (peptide)
peptide: {C18 diacid}-EAPELSTAVLGRLSAELHELATLPRTETGPESP-NH2
SMILES: CC(C)C[C@H](NC(=O)[C@H](CCC(=O)O)NC(=O)[C@H](Cc1c[nH]cn1)NC(=O)[C@H](CC(C)C)NC(=O)[C@H](CCC(=O)O)NC(=O)[C@H](C)NC(=O)[C@H](CO)NC(=O)[C@H](CC(C)C)NC(=O)[C@H](CCCNC(=N)N)NC(=O)CNC(=O)[C@H](CC(C)C)NC(=O)[C@@H](NC(=O)[C@H](C)NC(=O)[C@@H](NC(=O)[C@H](CO)NC(=O)[C@H](CC(C)C)NC(=O)[C@H](CCC(=O)O)NC(=O)[C@@H]1CCCN1C(=O)[C@H](C)NC(=O)[C@H](CCC(=O)O)NC(=O)CCCCCCCCCCCCCCCCC(=O)O)[C@@H](C)O)C(C)C)C(=O)N[C@@H](C)C(=O)N[C@H](C(=O)N[C@@H](CC(C)C)C(=O)N1CCC[C@H]1C(=O)N[C@@H](CCCNC(=N)N)C(=O)N[C@H](C(=O)N[C@@H](CCC(=O)O)C(=O)N[C@H](C(=O)NCC(=O)N1CCC[C@H]1C(=O)N[C@@H](CCC(=O)O)C(=O)N[C@@H](CO)C(=O)N1CCC[C@H]1C(N)=O)[C@@H](C)O)[C@@H](C)O)[C@@H](C)O
B7: [N-terminal(C18 diacid), 9V, 28P]mimylin (peptide)
peptide: {C18 diacid}-EASELSTAVLGRLSAELHELATLPRTEPGPESP-NH2
SMILES: CC(C)C[C@H](NC(=O)[C@H](CCC(=O)O)NC(=O)[C@H](Cc1c[nH]cn1)NC(=O)[C@H](CC(C)C)NC(=O)[C@H](CCC(=O)O)NC(=O)[C@H](C)NC(=O)[C@H](CO)NC(=O)[C@H](CC(C)C)NC(=O)[C@H](CCCNC(=N)N)NC(=O)CNC(=O)[C@H](CC(C)C)NC(=O)[C@@H](NC(=O)[C@H](C)NC(=O)[C@@H](NC(=O)[C@H](CO)NC(=O)[C@H](CC(C)C)NC(=O)[C@H](CCC(=O)O)NC(=O)[C@H](CO)NC(=O)[C@H](C)NC(=O)[C@H](CCC(=O)O)NC(=O)CCCCCCCCCCCCCCCCC(=O)O)[C@@H](C)O)C(C)C)C(=O)N[C@@H](C)C(=O)N[C@H](C(=O)N[C@@H](CC(C)C)C(=O)N1CCC[C@H]1C(=O)N[C@@H](CCCNC(=N)N)C(=O)N[C@H](C(=O)N[C@@H](CCC(=O)O)C(=O)N1CCC[C@H]1C(=O)NCC(=O)N1CCC[C@H]1C(=O)N[C@@H](CCC(=O)O)C(=O)N[C@@H](CO)C(=O)N1CCC[C@H]1C(N)=O)[C@@H](C)O)[C@@H](C)O
B8: [N-terminal(C18 diacid), 9V, 18A]mimylin (peptide)
peptide: {C18 diacid}-EASELSTAVLGRLSAELAELATLPRTETGPESP-NH2
SMILES: CC(C)C[C@H](NC(=O)[C@H](CCC(=O)O)NC(=O)[C@H](C)NC(=O)[C@H](CO)NC(=O)[C@H](CC(C)C)NC(=O)[C@H](CCCNC(=N)N)NC(=O)CNC(=O)[C@H](CC(C)C)NC(=O)[C@@H](NC(=O)[C@H](C)NC(=O)[C@@H](NC(=O)[C@H](CO)NC(=O)[C@H](CC(C)C)NC(=O)[C@H](CCC(=O)O)NC(=O)[C@H](CO)NC(=O)[C@H](C)NC(=O)[C@H](CCC(=O)O)NC(=O)CCCCCCCCCCCCCCCCC(=O)O)[C@@H](C)O)C(C)C)C(=O)N[C@@H](C)C(=O)N[C@@H](CCC(=O)O)C(=O)N[C@@H](CC(C)C)C(=O)N[C@@H](C)C(=O)N[C@H](C(=O)N[C@@H](CC(C)C)C(=O)N1CCC[C@H]1C(=O)N[C@@H](CCCNC(=N)N)C(=O)N[C@H](C(=O)N[C@@H](CCC(=O)O)C(=O)N[C@H](C(=O)NCC(=O)N1CCC[C@H]1C(=O)N[C@@H](CCC(=O)O)C(=O)N[C@@H](CO)C(=O)N1CCC[C@H]1C(N)=O)[C@@H](C)O)[C@@H](C)O)[C@@H](C)O

target: T1, human amylin receptor (human calcitonin receptor + human RAMP3) (human); experiment: whole-cell competition vs 125I-rat amylin (Assay Va)

Row | Binder | IC50
1 | B1 | 0.383 nM
2 | B2 | 0.891 nM
3 | B3 | 0.375 nM
4 | B4 | 0.374 nM
5 | B5 | 0.323 nM
6 | B6 | 0.352 nM
7 | B7 | 9 nM
8 | B8 | 0.745 nM
